Data taken from paper PMC7690626 (2020).

How the values were obtained:
Assay in all cases: FACS; CXCR4+ Toledo cells
[1] = molecular target: T22-GFP-H6-ATTO nanoconjugate (T22-GFP-H6 labeled with ATTO488) (horseshoe crab | , UniProt P14216, ATTO488 covalently bound through exposed external lysines (NHS-ester to amine); Poisson dye load distribution, positions not given)
[2] = molecular target: T22-GFP-H6-S-Cy5 nanoconjugate (T22-GFP-H6 labeled with Sulfo-Cyanine5) (horseshoe crab | , UniProt P14216, Sulfo-Cyanine 5 covalently bound through exposed external lysines (NHS-ester to amine); Poisson dye load distribution, positions not given)
[3] = molecular target: T22-GFP-H6 protein nanoparticle (unlabeled) (horseshoe crab | , UniProt P14216)

Kd [1]: 250 nM
Kd [2]: 540 nM
Kd [3]: 140 nM
B1: CXCR4 receptor on human Toledo diffuse large B-cell lymphoma cells (receptor)
chain: MEGISIYTSDNYTEEMGSGDYDSMKEPCFREENANFNKIFLPTIYSIIFLTGIVGNGLVILVMGYQKKLRSMTDKYRLHLSVADLLFVITLPFWAVDAVANWYFGNFLCKAVHVIYTVNLYSSVLILAFISLDRYLAIVHATNSQRPRKLLAEKVVYVGVWIPALLLTIPDFIFANVSEADDRYICDRFYPNDLWVVVFQFQHIMVGLILPGIVILSCYCIIISKLSHSKGHQKRKALKTTVILILAFFACWLPYYIGISIDSFILLEIIKQGCEFENTVHKWISITEALAFFHCCLNPILYAFLGAKFKTSAQHALTSVSRGSSLKILSKGKRGGHSSVSTESESSSFHSS
